Test [1] addresses T1, mFc-hNKG2D (human, UniProt P26718 73-216).
T1 construct: extracellular domain; Made in house (Dragonfly Tx); the order of tag and ECD follows the name mFc-hNKG2D; also called mFc-tagged human NKG2D; not shown: mouse Fc tag
T1 sequence (looked up): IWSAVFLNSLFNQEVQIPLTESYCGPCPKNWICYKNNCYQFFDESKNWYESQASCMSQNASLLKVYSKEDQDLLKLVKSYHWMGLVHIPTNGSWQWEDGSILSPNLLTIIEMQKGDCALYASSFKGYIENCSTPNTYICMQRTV
Briefly: SPR Biacore 8K 37 C; mFc-hNKG2D captured on anti-mFc chip, TriNKET as analyte; steady state fit; pH 5.0 control. In general terms: Surface plasmon resonance follows binding to a sensor surface in real time, without labels.

Test [2] addresses T1, mFc-hNKG2D. Briefly: SPR Biacore 8K 37 C; mFc-hNKG2D captured on anti-mFc chip, TriNKET as analyte; steady state fit; after 0.02% H2O2 24 h.
The target of a further test is T2, Human CLEC12A-His (human, UniProt Q5QGZ9 65-265).
T2 construct: Recombinant soluble protein made in house (Dragonfly Tx); The hCLEC12A spot of the HuProt array is written under this molecule as well; also called hCLEC12A-His; hCLEC12A; not shown: His tag
T2 sequence: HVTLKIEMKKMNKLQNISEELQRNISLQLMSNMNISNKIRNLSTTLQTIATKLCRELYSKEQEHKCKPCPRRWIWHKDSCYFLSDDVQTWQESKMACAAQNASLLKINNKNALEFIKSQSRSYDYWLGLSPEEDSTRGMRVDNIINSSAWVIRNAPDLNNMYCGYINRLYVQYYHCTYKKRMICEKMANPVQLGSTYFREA
Briefly: SPR Biacore 8K 37 C; TriNKET captured on anti-hFc chip, hCLEC12A-His as analyte; 1:1 fit; after 4 wks 40 C in phosphate/citrate/NaCl pH 7.8, n=2.

The target of test [3] is T1, mFc-hNKG2D. Briefly: SPR Biacore 8K 37 C; mFc-hNKG2D captured on anti-mFc chip, TriNKET as analyte; 1:1 kinetic fit; after 4 wks 40 C in phosphate/citrate/NaCl pH 7.8, n=2.
Experimental: Association was monitored for 60 seconds and dissociation was monitored for 60 seconds. Surfaces were regenerated between cycles with three pulses of 10 mM glycine-HCl, pH 1.7 injected for 20 seconds at 100 μL/min. HBS-EP+ (1×) buffer was used throughout the experiment. Data were analyzed using Biacore 8K Insight evaluation software (GE Healthcare).
The target of the next test is T3, Human CD16b (human, UniProt O75015 17-200, limits assumed, biotinylated).
T3 construct: Bought recombinant receptor; also called hFcγRIIIb
T3 sequence (O75015 17-200 limits assumed): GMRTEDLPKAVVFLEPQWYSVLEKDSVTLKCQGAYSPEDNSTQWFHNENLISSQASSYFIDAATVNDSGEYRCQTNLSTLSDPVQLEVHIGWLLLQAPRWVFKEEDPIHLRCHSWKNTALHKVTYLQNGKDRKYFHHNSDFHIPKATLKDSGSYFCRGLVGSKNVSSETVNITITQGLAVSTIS
Briefly: SPR, steady state fit.

Test [4] has as its target T4, recombinant cynomolgus FcRn (cynomolgus monkey, UniProt Q8SPV9 24-297; Q8SPW0 21-119).
T4 construct: also called cFcRn; cyno FcRn
Nature of the test: SPR 25C, pH 6.0, steady state; pH 6.0; second replicate.
Experimental: Each FcRn binding experiment consisted of multiple cycles utilizing varying concentrations of analytes. […] As no-signal, negative controls, a 0 nM blank cycle was placed at the start of each concentration series, and a blank amine coupling modified chip surface lacking FcRn were used. Each experimental cycle included association, dissociation, and regeneration steps. The association step consisted of 60 sec analyte injection and was followed by a 60 sec dissociation step. Surface regeneration (60 sec injection of HBS-EP+ buffer, pH 7.4) completed each kinetic cycle. All steps were executed at a flow rate of 30 μL/min and at 25° C. MBS-EP+ buffer, pH 6.0 was used as a running buffer. The data were fitted to a steady state affinity model with Biacore Insight evaluation software. Chi² (calculated by the software) related to the calculated Rₘₐₓ was used to assess goodness of the fit.

Where “and” joins values, the source holds several entries; their conditions need not be identical. Equal entries are not always repeated.

T4 sequence (Q8SPV9 24-297 limits assumed, chain 1 of 2): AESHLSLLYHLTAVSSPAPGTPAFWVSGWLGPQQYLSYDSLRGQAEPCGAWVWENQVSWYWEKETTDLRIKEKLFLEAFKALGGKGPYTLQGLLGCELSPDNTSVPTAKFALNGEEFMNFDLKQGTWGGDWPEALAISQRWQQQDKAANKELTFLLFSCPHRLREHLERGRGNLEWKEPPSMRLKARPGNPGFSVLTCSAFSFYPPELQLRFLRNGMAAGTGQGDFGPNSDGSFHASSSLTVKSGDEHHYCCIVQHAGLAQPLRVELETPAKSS
T4 sequence (Q8SPW0 21-119 limits assumed, chain 2 of 2): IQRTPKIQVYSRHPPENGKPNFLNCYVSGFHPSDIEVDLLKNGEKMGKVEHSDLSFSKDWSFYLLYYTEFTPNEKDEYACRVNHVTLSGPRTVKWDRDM
Experimental for Human CLEC12A-His: Briefly, human Fc specific antibodies were covalently immobilized at a density ˜8000-10000 resonance units (RU) on carboxy methyl dextran matrix of a CM5 biosensor chip via amine-coupling chemistry to create an anti-hFc IgG chip. […] Association was monitored for 300 seconds and dissociation was monitored for 600 seconds. Surfaces were regenerated between cycles with three pulses of 10 mM glycine-HCl, pH 1.7 injected for 20 seconds at 100 μL/min. HBS-EP+ (1×) with 0.1 mg/mL BSA buffer was used throughout the experiment. Data were analyzed using Biacore 8K Insight evaluation software (GE Healthcare). The kinetic rate constants and overall affinity were obtained using 1:1 kinetic fit binding model (FIGS. 71A-71B).

B1: F3'-1602 TriNKET (bispecific antibody, human IgG1, kappa)
chain: QLQLQESGPGLVKPSETLSLTCTVSGFSLTNYGLHWIRQPPGKCLEWIGVIWSGGKTDYNPSLKSRVTISKDTSKNQFSLKLSSVQAADTAVYYCAKYDYDDSLDYWGQGTLVTVSSGGGGSGGGGSGGGGSGGGGSDIQMTQSPSSLSASVGDRVTITCHASQNINFWLSWYQQKPGKAPKLLIYEASNLHTGVPSRFSGSGSGTRFTLTISSLQPEDIATYYCQQSHSYPLTFGCGTKLEIKGSDKTHTCPPCPAPELLGGPSVFLFPPKPKDTLMISRTPEVTCVVVDVSHEDPEVKFNWYVDGVEVHNAKTKPREEQYNSTYRVVSVLTVLHQDWLNGKEYKCKVSNKALPAPIEKTISKAKGQPREPRVYTLPPCRDELTKNQVSLTCLVKGFYPSDIAVEWESNGQPENNYKTTPPVLVSDGSFTLYSKLTVDKSRWQQGNVFSCSVMHEALHNHYTQKSLSLSPG
heavy: EVQLVESGGGLVKPGGSLRLSCAASGFTFSSYSMNWVRQAPGKGLEWVSSISSSSSYIYYADSVKGRFTISRDNAKNSLYLQMNSLRAEDTAVYYCARGAPIGAAAGWFDPWGQGTLVTVSSASTKGPSVFPLAPSSKSTSGGTAALGCLVKDYFPEPVTVSWNSGALTSGVHTFPAVLQSSGLYSLSSVVTVPSSSLGTQTYICNVNHKPSNTKVDKKVEPKSCDKTHTCPPCPAPELLGGPSVFLFPPKPKDTLMISRTPEVTCVVVDVSHEDPEVKFNWYVDGVEVHNAKTKPREEQYNSTYRVVSVLTVLHQDWLNGKEYKCKVSNKALPAPIEKTISKAKGQPREPQVCTLPPSRDELTENQVSLTCLVKGFYPSDIAVEWESNGQPENNYKTTPPVLDSDGSFFLYSWLTVDKSRWQQGNVFSCSVMHEALHNHYTQKSLSLSPG
light: DIQMTQSPSSVSASVGDRVTITCRASQGISSWLAWYQQKPGKAPKLLIYAASSLQSGVPSRFSGSGSGTDFTLTISSLQPEDFATYYCQQGVSFPRTFGGGTKVEIKRTVAAPSVFIFPPSDEQLKSGTASVVCLLNNFYPREAKVQWKVDNALQSGNSQESVTEQDSKDSTYSLSSTLTLSKADYEKHKVYACEVTHQGLSSPVTKSFNRGEC
notes: Trispecific F3' format: CLEC12A scFv-Fc paired with NKG2D Fab-Fc; Stressed and control samples of the stability studies are the same molecule; also called AB0237
As for B1, the Kd in the test with mFc-hNKG2D [1] was determined as 684 nM; in the test with mFc-hNKG2D [2], 732 nM; in the test with Human CLEC12A-His, 1.14 nM; in the test with mFc-hNKG2D [3], 869 nM. In addition, the koff with Human CLEC12A-His came out at 0.000948 s⁻¹; with mFc-hNKG2D [3] it was 0.133 s⁻¹. Further, the kon in the test with Human CLEC12A-His was found to be 829000 M⁻¹ s⁻¹; with mFc-hNKG2D [3], 153000 M⁻¹ s⁻¹.

B2: AB0192 TriNKET (other)
chain: EVQLVESGGGVVQPGGSLRLSCAASGFTFNAFGMHWVRQAPGKCLEWVAFISSGSTSIYYANTVKGRFTISRDNSKNTLYLQMNSLRAEDTAVYYCARDGYPTGGAMDYWGQGTSVTVSSGGGGSGGGGSGGGGSGGGGSDIQMTQSPSSLSASVGDRVTITCKASQDIYNYLSWFQQKPGKAPKPLIYRANILVSGVPSRFSGSGSGQDYTFTISSLQPEDIATYYCLQFDAFPFTFGCGTKLEIKGSDKTHTCPPCPAPELLGGPSVFLFPPKPKDTLMISRTPEVTCVVVDVSHEDPEVKFNWYVDGVEVHNAKTKPREEQYNSTYRVVSVLTVLHQDWLNGKEYKCKVSNKALPAPIEKTISKAKGQPREPRVYTLPPCRDELTKNQVSLTCLVKGFYPSDIAVEWESNGQPENNYKTTPPVLVSDGSFTLYSKLTVDKSRWQQGNVFSCSVMHEALHNHYTQKSLSLSPG
heavy: EVQLVESGGGLVKPGGSLRLSCAASGFTFSSYSMNWVRQAPGKGLEWVSSISSSSSYIYYADSVKGRFTISRDNAKNSLYLQMNSLRAEDTAVYYCARGAPIGAAAGWFDPWGQGTLVTVSSASTKGPSVFPLAPSSKSTSGGTAALGCLVKDYFPEPVTVSWNSGALTSGVHTFPAVLQSSGLYSLSSVVTVPSSSLGTQTYICNVNHKPSNTKVDKKVEPKSCDKTHTCPPCPAPELLGGPSVFLFPPKPKDTLMISRTPEVTCVVVDVSHEDPEVKFNWYVDGVEVHNAKTKPREEQYNSTYRVVSVLTVLHQDWLNGKEYKCKVSNKALPAPIEKTISKAKGQPREPQVCTLPPSRDELTENQVSLTCLVKGFYPSDIAVEWESNGQPENNYKTTPPVLDSDGSFFLYSWLTVDKSRWQQGNVFSCSVMHEALHNHYTQKSLSLSPG
light: DIQMTQSPSSVSASVGDRVTITCRASQGISSWLAWYQQKPGKAPKLLIYAASSLQSGVPSRFSGSGSGTDFTLTISSLQPEDFATYYCQQGVSFPRTFGGGTKVEIKRTVAAPSVFIFPPSDEQLKSGTASVVCLLNNFYPREAKVQWKVDNALQSGNSQESVTEQDSKDSTYSLSSTLTLSKADYEKHKVYACEVTHQGLSSPVTKSFNRGEC
notes: the condition stands under assay; also called AB0192 Lot AB0192-005
Consider B2, for which the Kd in the test with Human CD16b was 6800 nM and 6000 nM and 5300 nM.

B3: F3'-1602 TriNKET (other)
chain: QLQLQESGPGLVKPSETLSLTCTVSGFSLTNYGLHWIRQPPGKCLEWIGVIWSGGKTDYNPSLKSRVTISKDTSKNQFSLKLSSVQAADTAVYYCAKYDYDDSLDYWGQGTLVTVSSGGGGSGGGGSGGGGSGGGGSDIQMTQSPSSLSASVGDRVTITCHASQNINFWLSWYQQKPGKAPKLLIYEASNLHTGVPSRFSGSGSGTRFTLTISSLQPEDIATYYCQQSHSYPLTFGCGTKLEIKGSDKTHTCPPCPAPELLGGPSVFLFPPKPKDTLMISRTPEVTCVVVDVSHEDPEVKFNWYVDGVEVHNAKTKPREEQYNSTYRVVSVLTVLHQDWLNGKEYKCKVSNKALPAPIEKTISKAKGQPREPRVYTLPPCRDELTKNQVSLTCLVKGFYPSDIAVEWESNGQPENNYKTTPPVLVSDGSFTLYSKLTVDKSRWQQGNVFSCSVMHEALHNHYTQKSLSLSPG
heavy: EVQLVESGGGLVKPGGSLRLSCAASGFTFSSYSMNWVRQAPGKGLEWVSSISSSSSYIYYADSVKGRFTISRDNAKNSLYLQMNSLRAEDTAVYYCARGAPIGAAAGWFDPWGQGTLVTVSSASTKGPSVFPLAPSSKSTSGGTAALGCLVKDYFPEPVTVSWNSGALTSGVHTFPAVLQSSGLYSLSSVVTVPSSSLGTQTYICNVNHKPSNTKVDKKVEPKSCDKTHTCPPCPAPELLGGPSVFLFPPKPKDTLMISRTPEVTCVVVDVSHEDPEVKFNWYVDGVEVHNAKTKPREEQYNSTYRVVSVLTVLHQDWLNGKEYKCKVSNKALPAPIEKTISKAKGQPREPQVCTLPPSRDELTENQVSLTCLVKGFYPSDIAVEWESNGQPENNYKTTPPVLDSDGSFFLYSWLTVDKSRWQQGNVFSCSVMHEALHNHYTQKSLSLSPG
light: DIQMTQSPSSVSASVGDRVTITCRASQGISSWLAWYQQKPGKAPKLLIYAASSLQSGVPSRFSGSGSGTDFTLTISSLQPEDFATYYCQQGVSFPRTFGGGTKVEIKRTVAAPSVFIFPPSDEQLKSGTASVVCLLNNFYPREAKVQWKVDNALQSGNSQESVTEQDSKDSTYSLSSTLTLSKADYEKHKVYACEVTHQGLSSPVTKSFNRGEC
notes: CLEC12A scFv-Fc, NKG2D A49MI Fab-Fc, human IgG1 Fc; also called AB0237
With B3, in test [4], the Kd came to 1100 nM.

The term Kd denotes the constant that tells how readily two partners part at equilibrium. As a reminder, the koff is the first-order rate constant of dissociation. Low readings indicate slow dissociation, high ones fast dissociation. Broadly, the kon is the rate constant with which the complex forms. High values mean faster complex formation, low ones slower complex formation.

For the origin of these results see patent US20220119534A1 (DRAGONFLY THERAPEUTICS, published 2022).
